To fix the notation:
B1: TCR1 (TCR, V domains shown)
Valpha: QQGEEDPQALSIQEGENATMNCSYKTSINNLQWYRQNSGRGLVHLILIRSNEREKHSGRLRVTLDTSKKSSSLLITASRAADTASYFCATKRDSGAGSYQLTFGKGTKLSVIP
Vbeta: GVSQDPRHKITKRGQNVTFRCDPISEHNRLYWYRQTLGQGPEFLTYFQNEAQLEKSRLLSDRFSAERPKGSFSTLEIQRTEQGDSAMYLCASSSTGGHNEQFFGPGTRLTVL
B2: HA-1H TCR2 (TCR, V domains shown)
Valpha: KQEVTQIPAALSVPEGENLVLNCSFTDSAIYNLQWFRQDPGKGLTSLLLIQSSQREQTSGRLNASLDKSSGRSTLYIAASQPGDSATYLCAVIGLGGTYKYIFGTGTRLKVLA
Vbeta: GVSQDPRHKITKRGQNVTFRCDPISEHNRLYWYRQTLGQGPEFLTYFQNEAQLEKSRLLSDRFSAERPKGSFSTLEIQRTEQGDSAMYLCASSLVKGEKLFFGSGTQLSVL
B3: HA-1H TCR16 (TCR, V domains shown)
Valpha: KQEVTQIPAALSVPEGENLVLNCSFTDSAIYNLQWFRQDPGKGLTSLLLIQSSQREQTSGRLNASLDKSSGRSTLYIAASQPGDSATYLCAVHLLNDYKLSFGAGTTVTVRA
Vbeta: GVSQDPRHKITKRGQNVTFRCDPISEHNRLYWYRQTLGQGPEFLTYFQNEAQLEKSRLLSDRFSAERPKGSFSTLEIQRTEQGDSAMYLCASSLVVGNEQFFGPGTRLTVL
B4: TCR5 (TCR, V domains shown)
Valpha: QQGEEDPQALSIQEGENATMNCSYKTSINNLQWYRQNSGRGLVHLILIRSNEREKHSGRLRVTLDTSKKSSSLLITASRAADTASYFCATNSGNTPLVFGKGTRLSVIA
Vbeta: GVSQDPRHKITKRGQNVTFRCDPISEHNRLYWYRQTLGQGPEFLTYFQNEAQLEKSRLLSDRFSAERPKGSFSTLEIQRTEQGDSAMYLCASSLTTLDEQYVGPGTRLTVT
B5: TCR10 (TCR, V domains shown)
Valpha: KNQVEQSPQSLIILEGKNCTLQCNYTVSPFSNLRWYKQDTGRGPVSLTIMTFSENTKSNGRYTATLDADTKQSSLHITASQLSDSASYICVVDSGGGADGLTFGKGTHLIIQP
Vbeta: GVSQDPRHKITKRGQNVTFRCDPISEHNRLYWYRQTLGQGPEFLTYFQNEAQLEKSRLLSDRFSAERPKGSFSTLEIQRTEQGDSAMYLCASSMLTNYEQYFGPGTRLTVT

In the test the target is T1, HMHA1 (Rho GTPase-activating protein 45), minor histocompatibility antigen HA-1H, R139H polymorphism peptide … (human).
T1 peptide: VLHDDLLEA
Description: chromium release, peptide titration on pulsed target cells; one value stated for the seven clones together (FIG. 2B); T cell clone or line. The method, then: (A) HLA-A2/HA-1^H multimer and CD8⁺ monoclonal antibody staining of seven (7) representative HA-1^H specific clones (1, 2, 10, 13, […], 16, and 5) and a control clone specific for another tumor antigen. (B) Data from a chromium release assay in which the seven HA-1^H-specific clones were tested for killing HA-1 peptide-pulsed target cells. (C) Data from cytotoxicity assays in which the HA-1^H-specific CTL clones were incubated with peptide-pulsed T2 cells, HA-1^H+ AML cell line THP-1, HA-1^H+ primary AML, or HA-1⁻ AML.
In addition, a chromium release assay (CRA) was used to test 7 of the HA-1-specific CTL clones (1, 2, 10, 13, 14, 16 and 5) for killing of HA-1^H peptide-pulsed targets. The T cell clones recognized HA-1^H peptide ([…])-pulsed target cells at very low peptide concentrations and half-maximal lysis is seen at a peptide concentration of 10 pM. (FIG. 2B) (ICC data not shown). Cytotoxicity of the isolated clones against cells with or without endogenous HA-1^H expression was also examined. The assays show 7 HA-1^H-specific CTL clones (TCR1, TCR2, TCR10, TCR13, TCR14, TCR16 and TCR5) lysing HA-1^H+ acute myeloid leukemia (AML) cell line (THP-1) and HA-1^H+ primary AML but not HA-1^H- AML (FIG. 2C).
The molecule B1 came in with an EC50 of peptide of 0.01 nM.
Next, B2: 0.01 nM.
Next, B3: 0.01 nM.
In the case of B4 it was 0.01 nM.
Turning to B5, the EC50 of peptide came to 0.01 nM.

Values taken from US20190211076A1 (published 2019).
